These results are taken from patent US11866731.

Test [1] has as its target CD19 (B cell surface protein) on B cells (UniProt P15391). As to the kind of experiment: cell-based or functional assay.
For test [2] the target is unchanged. In words: cell-based or functional assay. The source holds these as a separate data set.

Several values for one entry are separate records, joined by “and”; a condition that tells them apart may be missing. Equal values may be shown once. Read-outs that look alike come from different tables or passages of the source.

Sequence of UniProt P15391 (P15391 20-556 limits assumed): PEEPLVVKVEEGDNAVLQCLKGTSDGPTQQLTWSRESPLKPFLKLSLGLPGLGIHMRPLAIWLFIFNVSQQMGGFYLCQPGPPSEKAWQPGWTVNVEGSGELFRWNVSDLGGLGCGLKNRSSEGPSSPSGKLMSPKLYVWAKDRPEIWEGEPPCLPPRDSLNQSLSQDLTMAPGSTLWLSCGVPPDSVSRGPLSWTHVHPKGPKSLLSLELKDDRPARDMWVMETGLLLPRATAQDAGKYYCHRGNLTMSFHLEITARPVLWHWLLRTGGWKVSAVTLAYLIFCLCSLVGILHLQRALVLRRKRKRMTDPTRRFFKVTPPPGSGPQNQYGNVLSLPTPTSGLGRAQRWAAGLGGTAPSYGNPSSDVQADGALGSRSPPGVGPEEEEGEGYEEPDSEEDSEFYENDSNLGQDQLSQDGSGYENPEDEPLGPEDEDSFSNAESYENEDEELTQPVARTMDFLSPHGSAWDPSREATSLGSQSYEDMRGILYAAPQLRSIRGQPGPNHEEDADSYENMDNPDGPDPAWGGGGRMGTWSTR

B1: chimeric antigen receptor targeting B cell surface protein (BCAR), CD19 CAR (protein, part only; not given: transmembrane and signaling domains, part only)
chain, part: DIVLTQSPASLAMSLQLGWRPGWFLDSPDRVIGAHLIHWYQQKPGQPPKLLIYLASNLETGVPARFSGSGSGTDFTLTIDPVEEDDVAIYSCLQSRIFPRTFGGGTKLEIKGGGGSGGGGSGGGGSQIQLVQSGPELKKPGETVKISCKASGYTFTDYSINWVKRAPGKGLKWMGWINTETREPAYAYDFRGRFAFSLETSASTAYLQINNLKYEDTATYFCALDYSYAMDYWGQGTSVTVSS
Take B1: in test [1], the Expansion of T cells (fold, after 4 days of co-culture with B cells and J82-NY-ESO-1-Luc cells) is 12 fold and 27 fold; the Expansion of T cells (fold, after 96 hours of co-culture with tumor cells and B cells) worked out at 25 fold; the Killing of J82-NY ESO1 tumor cells by BCAR-TCR T (RTCA Cell Index), with against without B cells was found to be 1000 times. For the same molecule, the Expansion of T cells (fold, after 96 hours of co-culture with tumor cells and B cells) in test [2] was 23 fold.
